Data from the supplement of paper PMC10567573.

B1: STX11 (parent)
chain: FQRAMHDYNQAEMKQRDNCKIRIQ

Variants of: B1
Test: protein stability index of a GFP-peptide fusion (GPS, HEK-293T) (PSI 1-6); higher = more stable
Conditions: c terminus: a fixed tail appended
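Further: lentivirally expressed fusions sorted by FACS into six bins by GFP to DsRed ratio, PSI derived from sequencing read proportions per bin multiplied by bin number.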

Question: For FQRAMHDYAQAEMKQRDNCKIRIQ, which protein stability index is on record?
Answer: 2.47

Question: With FQRAMHDMNQAEMKQRDNCKIRIQ as the variant, how does the protein stability index read?
Answer: 3.15

Question: Which protein stability index does the source give for FQRAMHDVNQAEMKQRDNCKIRIQ here?
Answer: 2.89

Question: Which protein stability index does the source give for FQRAMHDRNQAEMKQRDNCKIRIQ here?
Answer: 2.61

Question: For FQRAMHDDNQAEMKQRDNCKIRIQ, which protein stability index is on record?
Answer: 3.4

Question: With FQRAMHDFNQAEMKQRDNCKIRIQ as the variant, how does the protein stability index read?
Answer: 2.52

Question: Which protein stability index does the source give for FQRAMHDQNQAEMKQRDNCKIRIQ here?
Answer: 3.83

Question: With FQRAMHDTNQAEMKQRDNCKIRIQ as the variant, how does the protein stability index read?
Answer: 3.62

Question: With FQRAMHDINQAEMKQRDNCKIRIQ as the variant, how does the protein stability index read?
Answer: 3.08

Question: Which protein stability index does the source give for FQRAMHDLNQAEMKQRDNCKIRIQ here?
Answer: 2.39

Question: With FQRAMHDCNQAEMKQRDNCKIRIQ as the variant, how does the protein stability index read?
Answer: 2.62

Question: For FQRAMHDPNQAEMKQRDNCKIRIQ, which protein stability index is on record?
Answer: 3.32

Question: With FQRAMHDANQAEMKQRDNCKIRIQ as the variant, how does the protein stability index read?
Answer: 3.64

Question: Which protein stability index does the source give for FQRAMHDENQAEMKQRDNCKIRIQ here?
Answer: 3.47

Question: Which protein stability index does the source give for FQRAMHDWNQAEMKQRDNCKIRIQ here?
Answer: 2.08

Question: Which protein stability index does the source give for FQRAMHDSNQAEMKQRDNCKIRIQ here?
Answer: 3.45

Question: With FQRAMHDNNQAEMKQRDNCKIRIQ as the variant, how does the protein stability index read?
Answer: 3.83

Question: For FQRAMHDHNQAEMKQRDNCKIRIQ, which protein stability index is on record?
Answer: 3

Question: Which protein stability index does the source give for FQRAMHDGNQAEMKQRDNCKIRIQ here?
Answer: 3.39

Question: For FQRAMHDKNQAEMKQRDNCKIRIQ, which protein stability index is on record?
Answer: 3.58

Question: With FQLAMHDYNQAEMKQRDNCKIRIQ as the variant, how does the protein stability index read?
Answer: 2.76

Question: For FQGAMHDYNQAEMKQRDNCKIRIQ, which protein stability index is on record?
Answer: 2.88

Question: Which protein stability index does the source give for FQYAMHDYNQAEMKQRDNCKIRIQ here?
Answer: 2.25

Question: For FQNAMHDYNQAEMKQRDNCKIRIQ, which protein stability index is on record?
Answer: 3.12

Question: With FQCAMHDYNQAEMKQRDNCKIRIQ as the variant, how does the protein stability index read?
Answer: 1.65

Question: With FQIAMHDYNQAEMKQRDNCKIRIQ as the variant, how does the protein stability index read?
Answer: 2.38

Question: Which protein stability index does the source give for FQDAMHDYNQAEMKQRDNCKIRIQ here?
Answer: 3.44

Question: For FQSAMHDYNQAEMKQRDNCKIRIQ, which protein stability index is on record?
Answer: 2.51

Question: For FQTAMHDYNQAEMKQRDNCKIRIQ, which protein stability index is on record?
Answer: 2.93

Question: With FQPAMHDYNQAEMKQRDNCKIRIQ as the variant, how does the protein stability index read?
Answer: 2.99

Question: Which protein stability index does the source give for FQMAMHDYNQAEMKQRDNCKIRIQ here?
Answer: 1.62

Question: For FQQAMHDYNQAEMKQRDNCKIRIQ, which protein stability index is on record?
Answer: 3.28

Question: For FQKAMHDYNQAEMKQRDNCKIRIQ, which protein stability index is on record?
Answer: 3.01

Question: For FQHAMHDYNQAEMKQRDNCKIRIQ, which protein stability index is on record?
Answer: 2.97

Question: For FQAAMHDYNQAEMKQRDNCKIRIQ, which protein stability index is on record?
Answer: 2.94

Question: For FQEAMHDYNQAEMKQRDNCKIRIQ, which protein stability index is on record?
Answer: 3.99

Question: With FQVAMHDYNQAEMKQRDNCKIRIQ as the variant, how does the protein stability index read?
Answer: 2.86

Question: With FQFAMHDYNQAEMKQRDNCKIRIQ as the variant, how does the protein stability index read?
Answer: 2.07

Question: For FQRAMEDYNQAEMKQRDNCKIRIQ, which protein stability index is on record?
Answer: 4

Question: With FQRAMFDYNQAEMKQRDNCKIRIQ as the variant, how does the protein stability index read?
Answer: 2.32

Question: For FQRAMTDYNQAEMKQRDNCKIRIQ, which protein stability index is on record?
Answer: 3.06

Question: With FQRAMMDYNQAEMKQRDNCKIRIQ as the variant, how does the protein stability index read?
Answer: 1.96

Question: For FQRAMCDYNQAEMKQRDNCKIRIQ, which protein stability index is on record?
Answer: 2.7

Question: Which protein stability index does the source give for FQRAMGDYNQAEMKQRDNCKIRIQ here?
Answer: 2.9

Question: With FQRAMYDYNQAEMKQRDNCKIRIQ as the variant, how does the protein stability index read?
Answer: 3.26

Question: Which protein stability index does the source give for FQRAMDDYNQAEMKQRDNCKIRIQ here?
Answer: 2.92

Question: With FQRAMSDYNQAEMKQRDNCKIRIQ as the variant, how does the protein stability index read?
Answer: 1.9

Question: For FQRAMRDYNQAEMKQRDNCKIRIQ, which protein stability index is on record?
Answer: 2.16

Question: For FQRAMVDYNQAEMKQRDNCKIRIQ, which protein stability index is on record?
Answer: 2.8

Question: Which protein stability index does the source give for FQRAMQDYNQAEMKQRDNCKIRIQ here?
Answer: 2.66

Question: Which protein stability index does the source give for FQRAMPDYNQAEMKQRDNCKIRIQ here?
Answer: 2.5

Question: For FQRAMADYNQAEMKQRDNCKIRIQ, which protein stability index is on record?
Answer: 2.74

Question: For FQRAMIDYNQAEMKQRDNCKIRIQ, which protein stability index is on record?
Answer: 2.42

Question: With FQRAMLDYNQAEMKQRDNCKIRIQ as the variant, how does the protein stability index read?
Answer: 2.91

Question: With FQRAMWDYNQAEMKQRDNCKIRIQ as the variant, how does the protein stability index read?
Answer: 2.43

Question: With FQRAMKDYNQAEMKQRDNCKIRIQ as the variant, how does the protein stability index read?
Answer: 2.74

Question: With FQRAMNDYNQAEMKQRDNCKIRIQ as the variant, how does the protein stability index read?
Answer: 3.3

Question: For FQRAMHSYNQAEMKQRDNCKIRIQ, which protein stability index is on record?
Answer: 2.21

Question: Which protein stability index does the source give for FQRAMHYYNQAEMKQRDNCKIRIQ here?
Answer: 1.67

Question: For FQRAMHKYNQAEMKQRDNCKIRIQ, which protein stability index is on record?
Answer: 2.56

Question: With FQRAMHAYNQAEMKQRDNCKIRIQ as the variant, how does the protein stability index read?
Answer: 2.67

Question: Which protein stability index does the source give for FQRAMHGYNQAEMKQRDNCKIRIQ here?
Answer: 2.18

Question: Which protein stability index does the source give for FQRAMHQYNQAEMKQRDNCKIRIQ here?
Answer: 2.24

Question: For FQRAMHNYNQAEMKQRDNCKIRIQ, which protein stability index is on record?
Answer: 2.66

Question: For FQRAMHIYNQAEMKQRDNCKIRIQ, which protein stability index is on record?
Answer: 1.7

Question: For FQRAMHTYNQAEMKQRDNCKIRIQ, which protein stability index is on record?
Answer: 2.23

Question: With FQRAMHMYNQAEMKQRDNCKIRIQ as the variant, how does the protein stability index read?
Answer: 2.85

Question: Which protein stability index does the source give for FQRAMHVYNQAEMKQRDNCKIRIQ here?
Answer: 2.15

Question: With FQRAMHPYNQAEMKQRDNCKIRIQ as the variant, how does the protein stability index read?
Answer: 2.23

Question: Which protein stability index does the source give for FQRAMHHYNQAEMKQRDNCKIRIQ here?
Answer: 2.3

Question: For FQRAMHFYNQAEMKQRDNCKIRIQ, which protein stability index is on record?
Answer: 1.17

Question: With FQRAMHCYNQAEMKQRDNCKIRIQ as the variant, how does the protein stability index read?
Answer: 1.71

Question: Which protein stability index does the source give for FQRAMHLYNQAEMKQRDNCKIRIQ here?
Answer: 1.43

Question: With FQRAMHEYNQAEMKQRDNCKIRIQ as the variant, how does the protein stability index read?
Answer: 3.09

Question: For FQRAMHRYNQAEMKQRDNCKIRIQ, which protein stability index is on record?
Answer: 2.12

Question: Which protein stability index does the source give for SQRAMHDYNQAEMKQRDNCKIRIQ here?
Answer: 4.1

Question: With NQRAMHDYNQAEMKQRDNCKIRIQ as the variant, how does the protein stability index read?
Answer: 4.4

Question: With CQRAMHDYNQAEMKQRDNCKIRIQ as the variant, how does the protein stability index read?
Answer: 3.56

Question: Which protein stability index does the source give for WQRAMHDYNQAEMKQRDNCKIRIQ here?
Answer: 3.69

Question: For LQRAMHDYNQAEMKQRDNCKIRIQ, which protein stability index is on record?
Answer: 3.29

Question: For TQRAMHDYNQAEMKQRDNCKIRIQ, which protein stability index is on record?
Answer: 4.11

Question: For IQRAMHDYNQAEMKQRDNCKIRIQ, which protein stability index is on record?
Answer: 3.46

Question: For QQRAMHDYNQAEMKQRDNCKIRIQ, which protein stability index is on record?
Answer: 4.13

Question: Which protein stability index does the source give for MQRAMHDYNQAEMKQRDNCKIRIQ here?
Answer: 3.82

Question: With PQRAMHDYNQAEMKQRDNCKIRIQ as the variant, how does the protein stability index read?
Answer: 4.17

Question: With EQRAMHDYNQAEMKQRDNCKIRIQ as the variant, how does the protein stability index read?
Answer: 4.17

Question: With RQRAMHDYNQAEMKQRDNCKIRIQ as the variant, how does the protein stability index read?
Answer: 3.28

Question: Which protein stability index does the source give for KQRAMHDYNQAEMKQRDNCKIRIQ here?
Answer: 3.98

Question: With HQRAMHDYNQAEMKQRDNCKIRIQ as the variant, how does the protein stability index read?
Answer: 4.18

Question: Which protein stability index does the source give for YQRAMHDYNQAEMKQRDNCKIRIQ here?
Answer: 2.78

Question: For DQRAMHDYNQAEMKQRDNCKIRIQ, which protein stability index is on record?
Answer: 4.15

Question: Which protein stability index does the source give for GQRAMHDYNQAEMKQRDNCKIRIQ here?
Answer: 3.88

Question: With AQRAMHDYNQAEMKQRDNCKIRIQ as the variant, how does the protein stability index read?
Answer: 3.87

Question: Which protein stability index does the source give for VQRAMHDYNQAEMKQRDNCKIRIQ here?
Answer: 3.46
